# Experimental data taken from patent US20040009511A1, “Identification of compounds which stimulate bone formation using a cell-based screening assay targeting BMP signaling” (priority 2002, published 2004).
# B1: BMP-7: Bone morphogenetic protein 7 (protein, UniProt P18075 293-431, looked up)
# Bone morphogenetic protein 7: STGSKQRSQNRSKTPKNQEALRMANVAENSSSDQRQACKKHELYVSFRDLGWQDWIIAPEGYAAYYCEGECAFPLNSYMNATNHAIVQTLVHFINPETVPKPCCAPTQLNAISVLYFDDSSNVILKKYRNMVVRACGCH
# B2: BMP-4: Bone morphogenetic protein 4 (protein, UniProt P12644 293-408, looked up)
# Bone morphogenetic protein 4: SPKHHSQRARKKNKNCRRHSLYVDFSDVGWNDWIVAPPGYQAFYCHGDCPFPLADHLNSTNHAIVQTLVNSVNSSIPKACCVPTELSAISMLYLDEYDKVVLKNYQEMVVEGCGCR
# Columns and labels:
# [1] = tested on: 9×SBE-6×OSE2-OC-luc reporter construct in 2T3 C-17 cells; assay: Luciferase assay, 9×SBE-6×OSE2-OC-luc reporter stably transfected in 2T3 clone C-17; format: cell-based; parameters: Luciferase Activity: unit not given here; details: for Effect on luciferase activity of the reporter construct: 2T3 C-17 cells
# Description: (§1) An oligonucleotide containing 9 copies of Smad1 response element (9×SBE) and 6 copies of Cbfa1 response element (6×OSE2) was synthesized in the DNA laboratory at University of Texas Health Science Center at San Antonio. The osteocalcin basal promoter (OC, −155/+1) was amplified by Polymerase Chain Reaction (PCR) using mouse genomic DNA as a template and cloned into pGL3 vector. An 9×SBE-6×OSE2 oligonucleotide was cloned upstream of osteocalcin basal promoter.
# (§2) C2C12 and 2T3 cells were plated in 6-well culture plates at densities of 4×10^5 and 2×10^5 cells/well and cultured with DMEM or α minimal essential medium (α MEM) supplemented with 10% FCS for 24 hours. A 9×SBE-6×OSE2-OC-luc-reporter construct (2 μg/well) was co-transfected with pcDNA3 empty vector (0.2 mg/well) in C2C12 and 2T3 cells using lipofactamine plus reagents (Gibco/BRL). Forty eight hours later, G418 (200 μg/ml) was added to the culture plates. Four weeks after G418 selection, the G418 resistant cells were plated in 96-well plates at the density of 1 cell/well and cloned by limiting dilution method.
# (§3) C2C12 and 2T3 cells, in which 9×SBE-6×OSE2-OC-luc-reporter construct was stably transfected, were plated in 96-well culture plates at densities of 1×10^4 and 0.5×10^4 cells/well and cultured for 24 hours. The medium was changed to fresh medium supplemented with 2% FCS and different growth factors or hormone were added to culture medium for 24 hours or different compounds were added to culture medium for 2, 6, 12, 24 and 48 hours. The cell lysates were extracted and luciferase activities were determined by luciferase assay kit (Promega, Madison, Wis.) using a Luminometer.
# (§4) At the end of the incubation, the cell lysates were extracted using lysis buffer and luciferase activities were measured using a luciferase assay kit (Promega).
# [2] = tested on: BMP production in MG-63 cells; assay: Conditioned medium of treated MG-63 cells tested on 2T3 C-17 reporter cells; format: cell-based, human; details: MG-63 treated 1 and 5 hours, washed, 24 hour CM; 2T3 C-17 treated with CM 48 hours
# Description: 2T3 C-17 cells were then treated with said CM for 48 hours.
# [3] = tested on: 9×SBE-6×OSE2-OC-luc reporter construct in C2C12 C-10-62 cells; assay: Luciferase assay, 9×SBE-6×OSE2-OC-luc reporter stably transfected in C2C12 clone C-10-62; format: cell-based; details: 24 hours
# Description: as §1, §2, §3, §4
# [4] = tested on: 9×SBE-6×OSE2-OC-luc reporter construct; assay: Luciferase assay, 9×SBE-6×OSE2-OC-luc reporter construct, cells not specified; format: cell-based; details: stimulation of luciferase activity; stated for C2C12 C-10-62 and 2T3 C-17 without distinction
# Source text: as §1, §3
# Further, a reporter construct which contains multiple copies of both Smad1 (SBE) and Cbfa1 (OSE2) response elements (9×SBE-6×OSE2-OC-luc) was made.
# [5] = Epoxomicin 0.0156 μM, cell type not given
# [6] = Epoxomicin 0.0625 μM, cell type not given
# [7] = Epoxomicin 0.125 μM, cell type not given
# [8] = Epoxomicin 0.25 μM, cell type not given
# [9] = Epoxomicin 0.5 μM, cell type not given
# [10] = Epoxomicin 1 μM, cell type not given
# [11] = BMP-7 1.95 ng/ml, 24 hours, 2T3 clone 17
# [12] = BMP-7 3.91 ng/ml, 24 hours, 2T3 clone 17
# [13] = BMP-7 7.81 ng/ml, 24 hours, 2T3 clone 17
# [14] = BMP-7 15.625 ng/ml, 24 hours, 2T3 clone 17
# [15] = BMP-7 31.25 ng/ml, 24 hours, 2T3 clone 17
# [16] = BMP-7 62.5 ng/ml, 24 hours, 2T3 clone 17
# [17] = BMP-7 125 ng/ml, 24 hours, 2T3 clone 17
# [18] = BMP-7 250 ng/ml, 24 hours, 2T3 clone 17
# [19] = BMP-7 500 ng/ml, 24 hours, 2T3 clone 17
# [20] = BMP-7 1000 ng/ml, 24 hours, 2T3 clone 17
# [21] = BMP-4 0.049 ng/ml, 24 hours, 2T3 clone 17
# [22] = BMP-4 0.098 ng/ml, 24 hours, 2T3 clone 17
# [23] = BMP-4 0.195 ng/ml, 24 hours, 2T3 clone 17
# [24] = BMP-4 0.39 ng/ml, 24 hours, 2T3 clone 17
# [25] = BMP-4 0.78 ng/ml, 24 hours, 2T3 clone 17
# [26] = BMP-4 1.56 ng/ml, 24 hours, 2T3 clone 17
# [27] = BMP-4 3.125 ng/ml, 24 hours, 2T3 clone 17
# [28] = BMP-4 6.25 ng/ml, 24 hours, 2T3 clone 17
# [29] = BMP-4 12.5 ng/ml, 24 hours, 2T3 clone 17
# [30] = BMP-4 25 ng/ml, 24 hours, 2T3 clone 17
# [31] = BMP-4 50 ng/ml, 24 hours, 2T3 clone 17
# [32] = BMP-4 100 ng/ml, 24 hours, 2T3 clone 17
molecule,measurement,setting,value
"CC[C@H](C)[C@H](NC(=O)[C@H]([C@@H](C)CC)N(C)C(C)=O)C(=O)N[C@H](C(=O)N[C@@H](CC(C)C)C(=O)[C@@]1(C)CO1)[C@@H](C)O [Epoxomicin, epoxomicin, reference compound]",Luciferase Activity,[1]; [5],0.041
same,Luciferase Activity (fold increase),[1]; [5],1.0 fold
same,Luciferase Activity,[1]; [6],0.064
same,Luciferase Activity (fold increase),[1]; [6],1.6 fold
same,Luciferase Activity,[1]; [7],0.098
same,Luciferase Activity (fold increase),[1]; [7],2.4 fold
same,Luciferase Activity,[1]; [8],0.142
same,Luciferase Activity (fold increase),[1]; [8],3.5 fold
same,Luciferase Activity,[1]; [9],0.153
same,Luciferase Activity (fold increase),[1]; [9],3.7 fold
same,Luciferase Activity,[1]; [10],0.120
same,Luciferase Activity (fold increase),[1]; [10],2.9 fold
same,Effect of 24 hour conditioned medium of treated MG-63 cells on the reporter construct,[2],CM stimulated the reporter construct in a concentration-dependent manner
B1,Effect on luciferase activity of the reporter construct,[1]; 24 hours,stimulated luciferase activity in a dose-dependent manner
same,Luciferase Activity,[1]; [11],0.076
same,Luciferase Activity (fold increase),[1]; [11],1.1 fold
same,Luciferase Activity,[1]; [12],0.090
same,Luciferase Activity (fold increase),[1]; [12],1.3 fold
same,Luciferase Activity,[1]; [13],0.108
same,Luciferase Activity (fold increase),[1]; [13],1.6 fold
same,Luciferase Activity,[1]; [14],0.148
same,Luciferase Activity (fold increase),[1]; [14],2.2 fold
same,Luciferase Activity,[1]; [15],0.216
same,Luciferase Activity (fold increase),[1]; [15],3.2 fold
same,Luciferase Activity,[1]; [16],0.374
same,Luciferase Activity (fold increase),[1]; [16],5.6 fold
same,Luciferase Activity,[1]; [17],0.813
same,Luciferase Activity (fold increase),[1]; [17],12.1 fold
same,Luciferase Activity,[1]; [18],1.425
same,Luciferase Activity (fold increase),[1]; [18],21.3 fold
same,Luciferase Activity,[1]; [19],2.224
same,Luciferase Activity (fold increase),[1]; [19],33.2 fold
same,Luciferase Activity,[1]; [20],3.404
same,Luciferase Activity (fold increase),[1]; [20],50.8 fold
same,Effect on luciferase activity of the reporter construct,[3],stimulated luciferase activity in a dose-dependent manner
same,Minimal effective dose,[4],15 to 30 ng/mL
B2,Effect on luciferase activity of the reporter construct,[1]; 24 hours,stimulated luciferase activity in a dose-dependent manner
same,Luciferase Activity,[1]; [21],0.0745
same,Luciferase Activity (fold increase),[1]; [21],1.6 fold
same,Luciferase Activity,[1]; [22],0.111
same,Luciferase Activity (fold increase),[1]; [22],2.3 fold
same,Luciferase Activity,[1]; [23],0.141
same,Luciferase Activity (fold increase),[1]; [23],2.9 fold
same,Luciferase Activity,[1]; [24],0.384
same,Luciferase Activity (fold increase),[1]; [24],8.0 fold
same,Luciferase Activity,[1]; [25],0.597
same,Luciferase Activity (fold increase),[1]; [25],12.4 fold
same,Luciferase Activity,[1]; [26],0.821
same,Luciferase Activity (fold increase),[1]; [26],17.1 fold
same,Luciferase Activity,[1]; [27],1.064
same,Luciferase Activity (fold increase),[1]; [27],22.2 fold
same,Luciferase Activity,[1]; [28],1.256
same,Luciferase Activity (fold increase),[1]; [28],26.2 fold
same,Luciferase Activity,[1]; [29],1.534
same,Luciferase Activity (fold increase),[1]; [29],32.0 fold
same,Luciferase Activity,[1]; [30],1.576
same,Luciferase Activity (fold increase),[1]; [30],32.8 fold
same,Luciferase Activity,[1]; [31],1.887
same,Luciferase Activity (fold increase),[1]; [31],39.3 fold
same,Luciferase Activity,[1]; [32],2.166
same,Luciferase Activity (fold increase),[1]; [32],45.1 fold
same,Effect on luciferase activity of the reporter construct,[3],stimulated luciferase activity in a dose-dependent manner
same,Minimal effective dose,[4],0.1 to 0.2 ng/mL
